Reference: patent US20120052075A1 (H LUNDBECK A S, published 2012)

Key:
[1] = molecular target: soluble SorCS2 (extracellular domain of SorCS2), immobilized on the Biacore chip (Homo sapiens in the sequence list; not stated for the assay) (UniProt Q96PQ0); experiment: SPR (BIAcore), soluble SorCS2 immobilized, propeptide at 20 nM and 50 nM
[2] = molecular target: T1, soluble SorCS2 (extracellular domain of SorCS2), immobilized on the Biacore chip (Homo sapiens in the sequence list; not …, UniProt Q96PQ0 51-1078); experiment: SPR (BIAcore), soluble SorCS2 immobilized, p75 ECD at 1 uM
T1 construct: also called immobilized soluble SorCS2
Description: FIG. 6: Physical interaction between SorCS2 and p75^NTR. A, HEK293 cells stably transfected with SorCS2 and p75^NTR encoding vectors were crosslinked with DSP (Pierce) and subsequently lysed. The cell lysate was incubated with antibody against SorCS2 bound to Gammabind beads (GE Healthcare). The precitated complexes were eluted from the washed beads with SDS loading buffer. […] The presence of p75^NTR and IgG heavy is indicated. HEK293 cells stably transfected with a p75^NTR encoding plasmid alone were used as negative control. B, surface plasmon resonance experiment (BIAcore) showing the direct interaction of soluble full-length extracellular domain of p75^NTR (p75 ECD) with immobilized soluble SorCS2. The p75 ECD concentration used was 1 μM.
HEK293 cells stably transfected with plasmids encoding SorCS2 and p75^NTR were crosslinked with DSP (Pierce) and subsequently lysed. The cell lysate was incubated with antibody against SorCS2 bound to Gammabind beads (GE Healthcare). Precipitated complexes were eluted from the washed beads with SDS loading buffer. […] A biosensor chip from Biacore (CM5, cat.no. BR-1000-14) was activated using the NHS/EDC method as described by the supplier followed by coating with SorCS2 (FIG. 6B).

[3] = molecular target: T1, soluble SorCS2 (extracellular domain of …); experiment: SPR (BIAcore), soluble SorCS2 immobilized, BDNF at 10 nM and 20 nM

T1 sequence (Q96PQ0 51-1078 S716P limits assumed): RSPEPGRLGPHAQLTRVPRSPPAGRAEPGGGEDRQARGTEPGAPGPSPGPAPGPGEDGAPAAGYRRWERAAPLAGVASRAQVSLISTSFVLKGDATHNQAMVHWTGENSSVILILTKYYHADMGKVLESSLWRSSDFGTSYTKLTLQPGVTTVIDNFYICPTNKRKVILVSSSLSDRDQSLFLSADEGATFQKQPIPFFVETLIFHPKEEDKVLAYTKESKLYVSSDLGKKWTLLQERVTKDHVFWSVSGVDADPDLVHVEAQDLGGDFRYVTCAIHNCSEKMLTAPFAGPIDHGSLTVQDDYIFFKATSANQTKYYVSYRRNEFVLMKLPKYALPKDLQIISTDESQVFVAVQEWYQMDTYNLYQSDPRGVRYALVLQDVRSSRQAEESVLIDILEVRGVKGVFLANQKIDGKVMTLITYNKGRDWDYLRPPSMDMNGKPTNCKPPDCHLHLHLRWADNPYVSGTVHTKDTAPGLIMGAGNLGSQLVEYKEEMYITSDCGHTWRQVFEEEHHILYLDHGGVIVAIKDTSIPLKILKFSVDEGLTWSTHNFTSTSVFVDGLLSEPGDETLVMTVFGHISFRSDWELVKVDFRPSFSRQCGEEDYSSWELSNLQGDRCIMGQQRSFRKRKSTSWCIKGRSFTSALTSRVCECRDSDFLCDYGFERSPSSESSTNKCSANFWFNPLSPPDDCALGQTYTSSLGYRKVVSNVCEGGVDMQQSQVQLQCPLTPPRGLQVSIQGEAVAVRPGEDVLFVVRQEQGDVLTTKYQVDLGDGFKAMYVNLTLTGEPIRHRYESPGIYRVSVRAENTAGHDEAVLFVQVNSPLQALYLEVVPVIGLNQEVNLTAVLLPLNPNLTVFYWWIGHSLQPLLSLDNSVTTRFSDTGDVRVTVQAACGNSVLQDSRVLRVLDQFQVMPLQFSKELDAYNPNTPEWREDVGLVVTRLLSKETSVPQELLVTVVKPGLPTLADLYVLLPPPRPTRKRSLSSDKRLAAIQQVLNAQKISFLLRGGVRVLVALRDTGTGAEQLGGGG
Chain of soluble SorCS2 (extracellular domain of SorCS2), immobilized on the Biacore chip (Homo sapiens in the sequence list; not stated for the assay) (Q96PQ0 51-1078 S716P limits assumed): as above

**Q.** Which Kd [1] does the source give for “BDNF propeptide (from UniProt P23560 19-128) (ligand)” here?
**A.** The Kd was 15 nM.

B1: soluble full-length extracellular domain of p75^NTR (receptor)
chain: KEACPTGLYTHSGECCKACNLGEGVAQPCGANQTVCEPCLDSVTFSDVVSATEPCKPCTECVGLQSMSAPCVEADDAVCRCAYGYYQDETTGRCEACRVCEAGSGLVFSCQDKQNTVCEECPDGTYSDEANHVDPCLPCTVCEDTERQLRECTRWADAECEEIPGRWITRSTPPEGSDSTAPSTQEPEAPPEQDLIASTVAGVVTTVMGSSQPVVTRGTTDN
notes: Whole entry named; also called p75 ECD
**Q.** With B1 as the molecule, how does the Kd [2] read?
**A.** The Kd was about 10 nM.

B2: mature BDNF (ligand)
chain: HSDPARRGELSVCDSISEWVTAADKKTAVDMSGGTVTVLEKVPVSKGQLKQYFYETKCNPMGYTKEGCRGIDKRHWNSQCRTTQSYVRALTMDSKKRIGWRFIRIDTSCVCTLTIKRGR
**Q.** B2 was tested. Which Kd [3] did it give?
**A.** The Kd was 5 nM.
